The assay deals with recombinant His-tagged CD38 (Homo sapiens, UniProt P28907). As to the kind of experiment: Pepscan-based ELISA of His-tagged CD38 on CD31 peptide arrays. It counts as binding. Particulars: for Value (binding intensity of His-tagged CD38), LOOP15 conformational peptide array: mimic type LOOP15 (single loop, mP2 CLIPS); for Value (binding intensity of His-tagged CD38), LOOP15 conformational peptide array / Value (binding intensity of His-tagged CD38), LOOP7 conformational peptide array / Value (binding intensity of His-tagged CD38), BET conformational peptide array: sample with the highest signal; for Value (binding intensity of His-tagged CD38), LIN15 linear peptide array: mimic type LIN15, sample with the highest signal (His-tagged CD38 9 or 20 µg/mL); for Value (binding intensity of His-tagged CD38), LOOP7 conformational peptide array: mimic type LOOP7 (single loop, mP2 CLIPS); for Value (binding intensity of His-tagged CD38), BET conformational peptide array: mimic type BET (β-turn mimic, mP2 CLIPS). The text has this: Different sets of sCD31 peptides were synthesized according to the following designs. Note that actual order of peptides on mini-cards in some was randomized. • Set #1 • Mimic type: linear • Label: LIN15 • Linear peptides of 15 consecutive amino acid residues in length, derived from the target sequence of sCD31 with an offset of […]. • Set #2 • Mimic type: single loop (mP2 CLIPS) • Label: LOOP7 • Constrained peptides of 9 amino acid residues in length. On positions 2-8 are incorporated 7 consecutive amino acid residues derived from the target sequence of sCD31 with an offset of 1.3 residues. Cys residues were inserted on positions 1 and 9 and joined by mP2 CLIPS in order to create a loop mimic. Native Cys residues, if present, were replaced by Ser residues. • Set #3 • Mimic type: single loop, (mP2 CLIPS) • Label: LOOP15 • Constrained peptides of 17 amino acid residues in length. On positions 2-16 are incorporated 15 consecutive amino acid residues derived from the target sequence of sCD31 with an offset of […]. Cys residues were inserted on positions 1 and 17 and joined by mP2 CLIPS in order to create a loop mimic. Native Cys residues, if present, were replaced by Ser residues. • Set #4 • Mimic type: β-turn peptide mimics (mP2 CLIPS) • Label: BET • β-turn peptide mimics of 22 amino acid residues in length. On positions 2-21 are incorporated 20 consecutive amino acid residues derived from the target sequence of sCD31 with an offset of 1.3 residues. Residues on positions 11 and 12 are replaced by a Pro-Gly motif in order to induce the β-turn formation. Cys residues were inserted on positions 1 and 22 and joined by mP2 CLIPS in order to stabilize the mimic. Native Cys residues, if present, were replaced by Ser residues.
To reconstruct epitopes of sCD31, a library of peptide-based peptide mimics was synthesized using Fmoc-based solid-phase peptide synthesis. An amino functionalized polypropylene support was obtained by grafting with a hydrophilic polymer formulation, followed by reaction with t-butyloxycarbonyl-hexamethylenediamine (BocHMDA) using dicyclohexylcarbodiimide (DCC) with N-hydroxybenzotriazole (HOBt) and subsequent cleavage of the Boc-groups using trifluoroacetic acid (TFA).
Standard Fmoc-peptide synthesis was used to synthesize peptides on the amino-functionalized solid support by custom modified JANUS liquid handling stations (Perkin Elmer).
Synthesis of structural mimics was done using CLIPS technology. CLIPS technology allows to structure peptides into single loops, double loops, triple loops, sheet-like folds, helix-like folds, and combinations thereof. CLIPS templates are coupled to cysteine residues. The side-chains of multiple cysteines in the peptides are coupled to one or two CLIPS templates. For example, a 0.5 mM solution of the P2 CLIPS (2,6-bis(bromomethyl)pyridine) is dissolved in ammonium bicarbonate (20 mM, pH 7.8)/acetonitrile (1:3, v/v). This solution is added onto the peptide arrays. The CLIPS template binds to side-chains of two cysteines as present in the solid-phase bound peptides of the peptide-arrays (455 wells plate with 3-µL wells). The peptide arrays are gently shaken in the solution for 30 to 60 minutes while completely covered in solution.
Finally, the peptide arrays are washed extensively with excess of H2O and sonicated in disrupt-buffer containing 1% SDS / 0.1 % 2,2′-(ethylenedioxy)diethanethiol in PBS (pH 7.2) at 70° C. for 30 minutes, followed by sonication in H2O for another 45 minutes.
The binding of the sample (recombinant His-tagged CD38; 9 µg/mL and 20 µg/mL) to each of the synthesized peptides was tested in a pepscan-based ELISA. The peptide arrays were incubated with primary sample solution (overnight at 4° C.). […]

Regarding 259 (CVTHLAQEFPEIIIQKC) [compound 259], the “Value (binding intensity of His-tagged CD38), LOOP15 conformational peptide array” value (“Value … LOOP15 conformational peptide array” for short) came to 343 mAU. For the substance 171 (SKEQEGEYYCTAFNR) [compound 171], the “Value (binding intensity of His-tagged CD38), LIN15 linear peptide array” value (“Value … LIN15 linear peptide array” for short) was 454 mAU. With 194 (CEYQVLVEC) [compound 194], the “Value (binding intensity of His-tagged CD38), LOOP7 conformational peptide array” value (“Value … LOOP7 conformational peptide array” for short) is recorded as 651 mAU. 197 (CVILEFPVC) [compound 197]: the “Value … LOOP7 conformational peptide array” value was 527 mAU.

On to “277 (CSKVESSRISPGSSIVVNITEC) [compound 277]”, for which the “Value (binding intensity of His-tagged CD38), BET conformational peptide array” value (“Value … BET conformational peptide array” below) was 839 mAU. Turning to 200 (CAQEFPEIC) [compound 200], the “Value … LOOP7 conformational peptide array” value is 429 mAU. Still for that read-out and setting: for 222 (CKEQEGEYC) [compound 222] the value was 385 mAU. For 175 (CLQSFADVC) [compound 175], the “Value … LOOP7 conformational peptide array” value came out at 561 mAU. For the substance “10 (CMVKLKREKNPGDQNFVILEFC; Human sCD31 peptide) [compound 10]”, the “Value … BET conformational peptide array” value is on record as 1497 mAU.

237 (CYNISSMKSTESYFIPC) [compound 237]: the “Value … LOOP15 conformational peptide array” value is reported as 370 mAU. 207 (CNITELFSC) [compound 207]: the “Value … LOOP7 conformational peptide array” value was 512 mAU.

Take “14 (CPPANFTIQKPGTIVSQTQDFC; Human sCD31 peptide) [compound 14]”: the “Value … BET conformational peptide array” value is recorded as 739 mAU. For the substance 234 (CLFYKDDVLFYNISSMC) [compound 234], the “Value … LOOP15 conformational peptide array” value amounted to 497 mAU.

Turning to 214 (CDVEYQSVC) [compound 214], the “Value … LOOP7 conformational peptide array” value amounted to 556 mAU. On to 176 (CQSFADVSC) [compound 176], for which the “Value … LOOP7 conformational peptide array” value worked out at 413 mAU. Still for that read-out and setting: for 177 (CSFADVSTC) [compound 177] the value was 390 mAU. In the case of 239 (CISSMKSTESYFIPEVC) [compound 239], the “Value … LOOP15 conformational peptide array” value is listed as 499 mAU. Turning to 75 (REKNSRDQNFVILEF) [compound 75], the “Value … LIN15 linear peptide array” value turned out to be 453 mAU.

78 (RDQNFVILEFPVEEQ) [compound 78]: the “Value … LIN15 linear peptide array” value is reported as 1021 mAU. With “281 (CIVVSEMLSQPGISYDAQFEVC) [compound 281]”, the “Value … BET conformational peptide array” value was determined as 414 mAU. Take 164 (CNSRDQNFVILEFPVEC) [compound 164]: the “Value … LOOP15 conformational peptide array” value was 965 mAU. For the substance 173 (CNLTLQSFC) [compound 173], the “Value … LOOP7 conformational peptide array” value was determined as 370 mAU. As for 30 (KPQHQMLFYKDDVLF) [compound 30], the “Value … LIN15 linear peptide array” value was 355 mAU.

Turning to 183 (CVLFYNISC) [compound 183], the “Value … LOOP7 conformational peptide array” value is 502 mAU. With 245 (CESYFIPEVRIYDSGTC) [compound 245], the “Value … LOOP15 conformational peptide array” value amounted to 373 mAU. On to “279 (CPANFTIQKEPGIVSQTQDFTC) [compound 279]”, for which the “Value … BET conformational peptide array” value came out at 461 mAU.

Consider 212 (CNPTEDVEC) [compound 212], for which the “Value … LOOP7 conformational peptide array” value is on record as 402 mAU. On to “275 (CKLKREKNSRPGNFVILEFPVC) [compound 275]”, for which the “Value … BET conformational peptide array” value is reported as 833 mAU. For 209 (CSYDAQFEC) [compound 209], the “Value … LOOP7 conformational peptide array” value stood at 570 mAU. On the same count and under the same terms, in the case of 211 (CDAQFEVIC) [compound 211] it was 429 mAU. In the case of 178 (CMLFYKDDC) [compound 178], the “Value … LOOP7 conformational peptide array” value is 542 mAU. Turning to 32 (QHQMLFYKDDVLFYN) [compound 32], the “Value … LIN15 linear peptide array” value is recorded as 460 mAU. On to 169 (QKASKEQEGEYYCTA) [compound 169], for which the “Value … LIN15 linear peptide array” value is on record as 316 mAU. As to 249 (CEKNSRDQNFVILEFPC) [compound 249], the “Value … LOOP15 conformational peptide array” value amounted to 566 mAU.

As to “273 (CVLFYNISSMPGTESYFIPEVC) [compound 273]”, the “Value … BET conformational peptide array” value was determined as 632 mAU.

In the case of 102 (ISKVSSIVVNITELF) [compound 102], the “Value … LIN15 linear peptide array” value is reported as 642 mAU. 236 (CFYNISSMKSTESYFIC) [compound 236]: the “Value … LOOP15 conformational peptide array” value turned out to be 552 mAU.

For 247 (CKREKNSRDQNFVILEC) [compound 247], the “Value … LOOP15 conformational peptide array” value came out at 516 mAU. Regarding “284 (CEVLRVKVIAPGDEVQISILSC) [compound 284]”, the “Value … BET conformational peptide array” value was 447 mAU.

With 264 (CKVSSIVVNITELFSKC) [compound 264], the “Value … LOOP15 conformational peptide array” value is 211 mAU. For the substance 250 (CKNSRDQNFVILEFPVC) [compound 250], the “Value … LOOP15 conformational peptide array” value stood at 624 mAU. For 232 (CQMLFYKDDVLFYNISC) [compound 232], the “Value … LOOP15 conformational peptide array” value stood at 646 mAU. Take 235 (CVLFYNISSMKSTESYC) [compound 235]: the “Value … LOOP15 conformational peptide array” value was determined as 371 mAU. Turning to 198 (CILEFPVEC) [compound 198], the “Value … LOOP7 conformational peptide array” value is given as 537 mAU.

Regarding 80 (DQNFVILEFPVEEQD) [compound 80], the “Value … LIN15 linear peptide array” value came out at 963 mAU. Turning to 83 (NFVILEFPVEEQDRV) [compound 83], the “Value … LIN15 linear peptide array” value turned out to be 631 mAU. On to “283 (CLSEVLRVKVPGPVDEVQISIC) [compound 283]”, for which the “Value … BET conformational peptide array” value was determined as 601 mAU. Take 251 (CDQNFVILEFPVEEQDC) [compound 251]: the “Value … LOOP15 conformational peptide array” value is on record as 634 mAU. Turning to 256 (CTIQVTHLAQEFPEIIC) [compound 256], the “Value … LOOP15 conformational peptide array” value amounted to 504 mAU.

With 233 (CMLFYKDDVLFYNISSC) [compound 233], the “Value … LOOP15 conformational peptide array” value was found to be 630 mAU. The same measure, in the same setting: in the case of 262 (CISKVSSIVVNITELFC) [compound 262] it was 795 mAU. Turning to 216 (CEVQISILC) [compound 216], the “Value … LOOP7 conformational peptide array” value came out at 529 mAU. In the case of 185 (CTESYFIPC) [compound 185], the “Value … LOOP7 conformational peptide array” value is recorded as 549 mAU. Still for that read-out and setting: for 189 (CEVRIYDSC) [compound 189] the value was 642 mAU. Still for that read-out and setting: in the case of 206 (CVNITELFC) [compound 206] it was 625 mAU. Take “13 (CVESSRISKVPGIVVNITELFC; Human sCD31 peptide) [compound 13]”: the “Value … BET conformational peptide array” value was determined as 943 mAU. For “280 (CQIVVSEMLSPGRISYDAQFEC) [compound 280]”, the “Value … BET conformational peptide array” value is given as 417 mAU. Turning to 224 (CEGEYYSTC) [compound 224], the “Value … LOOP7 conformational peptide array” value was 650 mAU.

Values taken from US20230357354A1, “CD38-BINDING CD31 PEPTIDES AND USES THEREOF” (ENCEFA, priority 2020, published 2023).
